# Laboratory results from PMC8608356.
# How the values were obtained:
# Experiment in all cases: BLI
# Conditions in all cases: biotinylated; BLI (BLItz): 20 mM Tris-HCl pH 7.4, 80 mM NaCl, 20 mM KCl, 1 mM DTT, room temperature; […] (Triton X-100, Tween-20)
# [1] = test system: CCHFV nucleocapsid (N) protein, wild type (Crimean Congo Hemorrhagic fever virus strain 10200)
# [2] = test system: CCHFV nucleocapsid (N) protein, wild type (Crimean Congo Hemorrhagic fever virus strain 10200); remark: listed apart in the source
# [3] = test system: CCHFV N protein stalk domain (Crimean Congo Hemorrhagic fever virus strain 10200?)
# [4] = test system: CCHFV nucleocapsid (N) protein, wild type (Crimean Congo Hemorrhagic fever virus strain 10200); remark: listed apart in the source
# [5] = test system: CCHFV N protein stalk domain (Crimean Congo Hemorrhagic fever virus strain 10200?); remark: listed apart in the source
substance,measurement,setting,value
CCHFV S-segment mRNA 5' UTR,Kd,[1],67 nM
same,Kd,[2],37.3 nM
same,Kd,[3],36.7 nM
same,Kd,[4],54 nM
same,Kd,[5],54 nM
